Biological target: CD19 (human) (UniProt P15391)
Assay: cell-based or functional assay

Chain of UniProt P15391 (P15391 20-556): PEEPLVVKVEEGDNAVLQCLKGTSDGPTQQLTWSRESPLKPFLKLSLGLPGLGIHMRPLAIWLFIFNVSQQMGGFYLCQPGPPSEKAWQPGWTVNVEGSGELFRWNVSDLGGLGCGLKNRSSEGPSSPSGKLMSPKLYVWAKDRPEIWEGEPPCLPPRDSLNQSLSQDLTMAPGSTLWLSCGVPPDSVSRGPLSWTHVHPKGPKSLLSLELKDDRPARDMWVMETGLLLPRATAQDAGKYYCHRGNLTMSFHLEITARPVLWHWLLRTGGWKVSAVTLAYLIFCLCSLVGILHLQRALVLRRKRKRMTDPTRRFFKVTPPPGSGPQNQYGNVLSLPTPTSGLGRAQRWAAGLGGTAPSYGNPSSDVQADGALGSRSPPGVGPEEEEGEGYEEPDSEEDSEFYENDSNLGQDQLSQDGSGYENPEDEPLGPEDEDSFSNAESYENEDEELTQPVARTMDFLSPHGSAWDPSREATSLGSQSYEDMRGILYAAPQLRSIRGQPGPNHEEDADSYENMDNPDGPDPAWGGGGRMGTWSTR

portion of CAR19-NK cells that acquired CD19 on their surface (trogocytosis) within minutes of co-culture with Raji targets, flow cytometry: 75%
Substance: anti-CD19 activating CAR (19scFv.CD28.zeta) (from UniProt P10747 153-220; P20963 52-164)

Source: patent US20240261332A1
